# Earlier results as cited in patent publication US20170128542A1 (Albireo Pharma, Inc., priority 2015, published 2017).
# How the values were obtained:
# [1] = not given; remark: listed apart in the source
substance,measurement,setting,value
glucagon,Onset of action after injection,,5 to 20 min
same,Glucagon decomposed into degradation products,"[1]; acidic solution (pH 2-4), within 24 hours at 37° C.",5-70%
same,Aggregation in aqueous solutions of pH 3 or less,"[1]; aqueous solution, pH 3 or less",aggregate to form a gel within an hour
